The results in this text go back to US20120039915A1 (University of California, published 2012).

Test [1] deals with T1, CD133 (human, UniProt O43490 20-865).
T1 construct: whole, on cells; also called CD133 molecule
T1 sequence (looked up): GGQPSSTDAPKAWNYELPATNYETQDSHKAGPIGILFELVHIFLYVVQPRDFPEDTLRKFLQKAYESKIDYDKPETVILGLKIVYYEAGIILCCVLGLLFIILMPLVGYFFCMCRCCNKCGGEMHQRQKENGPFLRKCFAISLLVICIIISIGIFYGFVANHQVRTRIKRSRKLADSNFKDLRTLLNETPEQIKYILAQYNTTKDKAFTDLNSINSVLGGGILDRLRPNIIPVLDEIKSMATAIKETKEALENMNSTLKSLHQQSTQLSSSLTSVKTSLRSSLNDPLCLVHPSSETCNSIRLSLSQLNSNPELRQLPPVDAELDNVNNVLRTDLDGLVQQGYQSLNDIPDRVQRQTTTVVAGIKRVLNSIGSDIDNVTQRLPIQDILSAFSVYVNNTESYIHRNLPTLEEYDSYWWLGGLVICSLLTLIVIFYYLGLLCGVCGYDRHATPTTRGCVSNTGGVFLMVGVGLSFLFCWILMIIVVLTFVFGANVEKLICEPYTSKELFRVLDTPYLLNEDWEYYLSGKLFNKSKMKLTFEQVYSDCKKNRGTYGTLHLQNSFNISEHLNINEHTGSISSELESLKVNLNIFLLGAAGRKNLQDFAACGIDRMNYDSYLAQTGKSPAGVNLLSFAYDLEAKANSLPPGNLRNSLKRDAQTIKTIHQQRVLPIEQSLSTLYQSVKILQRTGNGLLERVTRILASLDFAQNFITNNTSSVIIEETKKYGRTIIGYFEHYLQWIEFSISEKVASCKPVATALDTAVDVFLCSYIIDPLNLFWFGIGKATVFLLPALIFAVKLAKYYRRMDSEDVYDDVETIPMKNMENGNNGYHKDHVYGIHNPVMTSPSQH
Kind of test: FACS, biotin-labelled GC4 scFv on Caco2 cells (CD133-high by paragraph 182); '-' means lack of significant binding. As for the experimental part: For Table 1-6, biotin-labeled GC4 scFvs were tested for binding to a panel of human cell lines (all were tumor lines, except for BPH-1) by FACS. “+” indicates binding and “-” indicated lack of significant binding. Du-145 cells were derived from brain metastasis of prostate tumor.
In general terms: Flow cytometry measures light scatter and fluorescence of single cells or particles in a stream.

Test [2] concerns the target T2, antigen bound by the GC4 antibody on GBM tumor sphere cells (target antigen not determined).
T2 construct: also called GBM tumor spheres; GBM sphere cells
As to the kind of experiment: FACS on GBM tumor sphere cells at RT, MFI fitted (apparent dissociation constant). As for the experimental part:
FIG. 7A depicts the production of recombinant GC4 IgG. H: heavy chain. L: light chain. MW: molecular weight. […] Ctr: a non-binding human IgG1. […] FACS analysis was performed to determine binding of GC4 IgG1 (1 μg/ml) in the presence of the parental GC4 or four other scFvs (50 μg/ml each). Binding was detected by fluorescently labeled anti-human IgG antibody. Normalized mean fluorescence intensities were used to compare binding results. Error bars indicate standard deviations of duplicated experiments. *, P<0.05. […] MFI values were fitted using GraphPad. FIG. 7E depicts the binding constant of GC4 scFv to GBM tumor spheres. […] MFI values were fitted using GraphPad.
Affinity measurement: Varying concentrations of GC4 IgG1s were incubated with 10⁵ GBM cells at RT for 1 h in PBS containing 0.25% BSA. Bound IgG1s were detected by PE-conjugated goat anti-human antibody (Jackson ImmunoResearch) following incubation at RT for 30 min. Apparent dissociation constant was determined by FACS with mean fluorescence intensity (MFI) data fitted using GraphPad Prism (GraphPad Software). The apparent dissociation constant of GC4 scFv was measured similarly except that bound scFvs were detected by mouse anti-hexahistidine antibody (AbD Serotec/MorphoSys) followed by PE-conjugated goat anti-mouse antibody (Jackson ImmunoResearch).

Test [3] deals with T1, CD133. Kind of test: FACS, phage on Caco-2 cells. As for the experimental part:
FIG. 3 depicts the results of co-expression of the CD133 epitope and phage-bound antigens. FIG. 3A depicts FITC-labeled phage antibodies and biotin-labeled anti-CD133 mAb were studied on GBM sphere cells. A typical result from studies on GBMx-1 sphere cells is shown. Percentage of total cells is indicated for each quadrant. […] PE-conjugated control mouse IgG and anti-CD133 mAb were incubated with Caoa-2 cells and binding detected by FACS. […] Four tumor sphere cell-targeting phage (GB1, GB8, GH9 and GC4) were tested. Negative control: a non-binding phage. Positive control: a Caco-2 binding phage preparation. FIG. 3D depicts the results of antibody immunoprecipitation of Caco-2 lysates. Lane 1: immunoprecipitation with anti-CD133 mAb. Lane 2: immunoprecipitation with the GC4 antibody. All immunoprecipitation products were analyzed on a SDS-PAGE gel followed by Western blot with anti-CD133 antibody and horseradish peroxidase-conjugated anti-mouse secondary antibody. Arrow indicates CD133. Molecular weights (kd) are indicated.
Phage antibody binding to antigens other than CD133: Caco-2 cells that express high levels of CD133 were incubated with phage antibodies along with the positive control PE-conjugated anti-CD133 antibody at 4° C. for 1 h, washed twice with PBS, and bound phage detected by biotin-labeled anti-fd antibody followed by streptavidin-R-PE, and analyzed by FACS. For immunoprecipitation studies, 10⁵ Caco-2 cells were lysed in 1% NP40, 0.15 M NaCl, and 0.01 M sodium phosphate, pH 7.2, on ice for 2 h. Lysates were precleared and incubated with 50 μg/ml scFvs bearing a hexahistidine tag at 4° C. for 1 h, and captured onto Ni-NTA+ beads (Qiagen). […] All immunoprecipitation products were analyzed by 4-20% gradient SDS-PAGE, followed by Western blot with mouse anti-CD133 followed by horseradish peroxidase-conjugated goat anti-mouse antibody (Jackson ImmunoResearch) using ECL Plus™ (GE Healthcare).

B1: GC4 scFv (scFv)
scFv: QVQLVESGGGLVQPGGSLRLSCAASGFTFGTYDMSWVRQAPGKGLEWVSGISGSGGSTYYADSVKGRFTISRDNSKNTVYLQMNSLRVEDTAVYYCARGGWYSDNWGQGTLVTVSSGGGGSGGGGSGGGGSSELTQDPAVSVALGQTVRITCQGGSLRSYYASWYQQKPGQAPLLVIYGENNRPSGIPDRFSGSSSGNTASLTITGAQAEDEADYYCHSRDSSGNHVVFGGGTKLTV
notes: Human scFv from a naive fd phage library; also called GC4 phage antibody; parental GC4 scFv; not shown: lette
B1: in the test with CD133 [1], the binding result was “no binding”. Also, the Kd in test [2] was 222 nM.

B2: GB8 scFv (scFv)
scFv: QVQLVESGGGLVQPGGSLRLSCAASGFTFSNYALTWVRQAPGKGLEWVSAISGSGGSTYYADSVKGRFTISRDTSKNTLYLQMNSLRAEDTAVYYCARGGYSYGPPFDYWGQGTLVTVSSGGGGSGGGGSGGGGSSELTQDPAVSVALGQTVRITCQGDSLRSYYASWYQQKPGQAPVLVIYGKNKRPSGIPDRFSGSSSGNTASLTITGAQAVDEADYHCNSRDSSGNHVVFGGGTKLTV
notes: His-tagged soluble scFv in the immunoprecipitation; also called GB8 phage antibody; not shown: lette
Regarding B2, the binding result with CD133 [3] is on record as “no binding”.

B3: GH9 scFv (scFv)
scFv: QVQLQESGGGLVKPGGSLRLSCAASGFTFSSYSMNWVRQAPGQGLEWVSSISSRNSDIYYADSVRGRFTISRDNAKNSLYLQMNSLRAEDTAVYYCARDSSGYSSSPSDYWGQGTLVTVSSGGGGSGGGGSGGGGSNFMLTQPPSVSVAPGKTASLTCGGYNIGTKSVHWYQQKPGQAPVVVVHDDSDRPSGIPERFSGSNSGTTATLTISRVEAGDEADYYCQAWDSISEEVVFGGGTKLTV
notes: On fd phage in FACS; His-tagged soluble scFv in the immunoprecipitation; also called GH9 phage antibody; not shown: lette
For the molecule B3, in the test with CD133 [3], the binding result is given as “no binding”.

B4: GB1 scFv (scFv)
scFv: QVQLVQSGGGLVKPGGSLRLSCAASGFTFSNAWMNWVRQAPGKGLEWVGRIKSKTDGGTTDYAAPVNGRFTISRDDSKNTLYLQMNSLKTEDTAVYSCTTENWGSVNWGQGTLVTVSSGGGGSGGGGSGGGGSNFMLTQPPSVSVAPGKTASLTCGYNIGTKSVHWYQQKPGQAPVVVVHDDSDRPSGIPERFSGSNSGTTATLTISRVEAGDEADYYCQAWDSISEEVVFGGGTKLTV
notes: On fd phage in the Caco-2 FACS; His-tagged soluble scFv in the immunoprecipitation; also called GB1 phage antibody; not shown: lette
In the case of B4, the binding result with CD133 [3] is “no binding”.
